Test results from PMC9634608, “Multi-crystal native-SAD phasing at 5 keV with a helium environment” (IUCrJ, 2022).

Molecular target: the molecule itself
Assay: crystal structure; native-SAD at 5 keV with a helium path, 18 microcrystals, space group R3, 2.6 Å; crystals grown by sitting drop at 4°C in 0.1 M HEPES pH 7.8, 1 mM ZnSO4, 27–29% PEG 400, protein in β-OG

B1: TehA (natural protein)
chain: MNITKPFPLPTGYFGIPLGLAALSLAWFHLENLFPAARMVSDVLGIVASAVWILFILMYAYKLRYYFEEVRAEYHSPVRFSFIALIPITTMLVGDILYRWNPLIAEVLIWIGTIGQLLFSTLRVSELWQGGVFEQKSTHPSFYLPAVAANFTSASSLALLGYHDLGYLFFGAGMIAWIIFEPVLLQHLRISSLEPQFRATMGIVLAPAFVCVSAYLSINHGEVDTLAKILWGYGFLQLFFLLRLFPWIVEKGLNIGLWAFSFGLASMANSATAFYHGNVLQGVSIFAFVFSNVMIGLLVLMTIYKLTKGQFFLK
notes: TehA, a bacterial homolog of the plant nitrate/chloride channel SLAC1; construct as described by Chen et al. (2010); The printed length of 314 residues may differ from the length of the UniProt entry; also called membrane protein TehA; source: E. coli BL21(DE3) pLysS, purified (IMAC, size-exclusion chromatography); not shown: His tag, C-terminal, cleaved
stoichiometry N: 3
